Biological target: T1, Sema-3A (Mus musculus, UniProt O08665)
T1 construct: Visual cortex of adult mice were dissected and lysed in homogenization buffer; from tissue; host or cells: adult mouse visual cortex
T1 sequence (O08665 21-772): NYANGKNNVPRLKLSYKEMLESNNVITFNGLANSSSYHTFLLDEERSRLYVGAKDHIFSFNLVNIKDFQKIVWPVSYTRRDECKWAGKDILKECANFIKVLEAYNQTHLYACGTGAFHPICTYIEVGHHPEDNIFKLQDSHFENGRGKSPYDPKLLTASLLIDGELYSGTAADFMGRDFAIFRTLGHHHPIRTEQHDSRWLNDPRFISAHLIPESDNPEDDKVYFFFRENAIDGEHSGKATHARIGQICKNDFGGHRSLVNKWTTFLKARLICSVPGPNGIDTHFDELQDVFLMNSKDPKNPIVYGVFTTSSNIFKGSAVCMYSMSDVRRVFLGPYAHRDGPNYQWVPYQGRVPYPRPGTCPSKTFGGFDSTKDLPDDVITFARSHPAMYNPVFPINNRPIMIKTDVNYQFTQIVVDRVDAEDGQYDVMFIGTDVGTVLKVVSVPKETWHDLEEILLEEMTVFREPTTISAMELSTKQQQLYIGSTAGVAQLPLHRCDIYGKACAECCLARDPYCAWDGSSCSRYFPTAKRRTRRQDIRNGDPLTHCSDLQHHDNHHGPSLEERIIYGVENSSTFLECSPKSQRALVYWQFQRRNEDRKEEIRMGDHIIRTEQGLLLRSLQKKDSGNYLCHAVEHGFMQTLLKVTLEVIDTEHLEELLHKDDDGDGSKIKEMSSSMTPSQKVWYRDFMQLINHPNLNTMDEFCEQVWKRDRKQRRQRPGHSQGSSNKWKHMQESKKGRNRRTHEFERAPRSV
Test: Ligand pull-down with lysates of adult mouse visual cortex, western blot for Sema-3A
Format: binding
Conditions: ligand pre-incubated with 50 nmol peptide
Description: Visual cortex of adult mice were dissected and lysed in homogenization buffer (0.32 M sucrose, 5 mM HEPES, 10 mM MgCl2 and protease inhibitors). Samples were centrifuged (8 min, 1700 g) at 4° C. and the supernatant was incubated 2 hours at 37° C. with 5 nmol of GAG mimics. For the competition assay, ligands were pre-incubated 30 min with 50 nmol of RK-, AA- or SC-peptide at 37° C. prior to incubation overnight at 4° C. with streptavidin-coupled Dynabeads (Life technologies). The loaded beads were washed with homogenization buffer and heated 10 min at 95° C. in Laemmli buffer (with DTT) to detach proteins for western blot analysis.
Immunoprecipitated proteins were separated on NuPAGE 4-12% Bis-Tris pre-cast gels (Invitrogen) for 1 h at 200 V and transferred onto a methanol-activated PVDF membrane at 400 mA for 1 h. Membranes were blocked with 5% non-fat dry milk for 1 h before incubation with primary antibody anti-Sema3A (rabbit, 1/1000, Millipore) overnight at 4° C. […] Membranes were digitized with an LAS-4000 (Fujifilm) and quantified by densitometry with ImageJ.
To measure the in vivo activity and specificity of biotinylated GAG mimics, we performed biochemical and immunohistochemical analyses. […] We first focused on Sema-3A, as cortical Otx2 levels are too low to be reliably detected biochemically.

## RKQRRERTTFTRAQL [RKpep]
  disruption of Sema-3A interaction with (EC′AC′)6 by competing peptide: specifically disrupts Sema-3A interaction

Reference: patent US11357816B2, “Ligand controling interaction between gags with their effector molecules and use thereof” (CENTRE NATIONAL DE LA RECHERCHE SCIENTIFIQUE (CNRS), priority 2018, dated 2022)
